Patent US20230068663A1 (University of Texas, published 2023)

Key:
[1] = target: T1, LILRB2 chimeric receptor on LILRB2 reporter cells (extracellular domain of LILRB2 fused with … (UniProt Q8N423 22-460)); assay: cell-based or functional assay
LILRB3 = target: T2, LILRB3; assay: flow cytometry, reporter cells
T2 construct: also called LILRB3 reporter cells; not shown: transmembrane/intracellular domains of PILRb, the display part of the chimeric reporter receptor
Experimental: (§1) FIG. 29. Binding of LILRB2 antibodies on reporter cell line expressing ectodomain of LILR family proteins on cell surface. Bound antibodies were detected with anti-human Fc-specific secondary antibody (2nd Ab) conjugated to AF647. […] All incubations were performed for 30 minutes at 4° C. Data shown is mean fluorescence intensity after sample acquisition in flow cytometer.

LILRB5 = target: T3, LILRB5; assay: flow cytometry, reporter cells
T3 construct: also called LILRB5 reporter cells; not shown: transmembrane/intracellular domains of PILRb, the display part of the chimeric reporter receptor
Experimental: as §1

LILRA6 = target: T4, LILRA6; assay: flow cytometry, reporter cells
T4 construct: also called LILRA6 reporter cells
Experimental: as §1

[2] = target: T1, LILRB2 chimeric receptor on LILRB2 …; assay: flow cytometry, reporter cells
Experimental: as §1

LAIR1 on reporter cells = target: T5, LAIR1 on reporter cells (UniProt Q6GTX8 22-165, limits assumed); assay: flow cytometry, reporter cells
T5 sequence (looked up): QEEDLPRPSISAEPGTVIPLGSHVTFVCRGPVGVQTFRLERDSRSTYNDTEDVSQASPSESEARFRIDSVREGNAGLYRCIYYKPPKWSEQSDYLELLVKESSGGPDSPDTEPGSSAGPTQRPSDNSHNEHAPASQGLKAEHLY
Experimental: as §1

[3] = target: T6, full length human LILRB2 stably expressed on HEK293 cells (human, UniProt Q8N423 22-597); assay: flow cytometry, HEK293 cells expressing full length human LILRB2
T6 construct: whole, on cells; also called HEK293_LILRB2
Experimental: FIG. 31. Binding of LILRB2 antibodies on HEK293 stably expressing full length human LILRB2. Fifty thousand cells were incubated with a dilution series (40-0.0006 μg/mL) of LILRB2 antibodies in a final volume of 100 μL. Bound antibodies were detected with anti-human Fc-specific secondary antibody conjugated to AF647. All incubations were performed for 30 minutes at 4° C. Data shown is averaged geometric mean fluorescence intensity ± standard error of the mean (s.e.m.) after sample acquisition (in duplicates) in flow cytometer (BD FACS Celesta) and subtracted by background fluorescence of samples incubated with secondary antibody only.

T4 sequence (chain, as listed by the source limits assumed): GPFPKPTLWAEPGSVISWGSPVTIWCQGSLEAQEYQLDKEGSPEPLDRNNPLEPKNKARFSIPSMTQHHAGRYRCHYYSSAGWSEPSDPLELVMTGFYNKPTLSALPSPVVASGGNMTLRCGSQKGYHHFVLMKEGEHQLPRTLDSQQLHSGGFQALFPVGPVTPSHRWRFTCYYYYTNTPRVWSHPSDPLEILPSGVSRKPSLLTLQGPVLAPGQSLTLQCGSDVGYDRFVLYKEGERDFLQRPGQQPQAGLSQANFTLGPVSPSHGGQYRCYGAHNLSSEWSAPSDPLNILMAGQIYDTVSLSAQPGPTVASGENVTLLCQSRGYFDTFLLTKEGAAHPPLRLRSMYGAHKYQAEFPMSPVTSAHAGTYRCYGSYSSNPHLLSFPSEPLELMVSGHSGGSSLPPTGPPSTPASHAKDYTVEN
T3 sequence (chain, as listed by the source limits assumed): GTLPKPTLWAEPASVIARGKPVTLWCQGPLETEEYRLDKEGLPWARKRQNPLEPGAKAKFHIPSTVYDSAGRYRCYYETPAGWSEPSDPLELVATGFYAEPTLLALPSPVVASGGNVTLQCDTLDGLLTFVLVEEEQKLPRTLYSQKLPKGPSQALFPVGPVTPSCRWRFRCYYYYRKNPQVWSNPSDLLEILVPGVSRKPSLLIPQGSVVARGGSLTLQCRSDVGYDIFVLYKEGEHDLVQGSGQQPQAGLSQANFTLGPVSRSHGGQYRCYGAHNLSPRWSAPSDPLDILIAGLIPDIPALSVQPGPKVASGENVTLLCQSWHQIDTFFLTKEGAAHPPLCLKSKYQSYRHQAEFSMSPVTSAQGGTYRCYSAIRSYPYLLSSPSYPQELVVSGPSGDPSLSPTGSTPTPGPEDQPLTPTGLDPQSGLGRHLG

B1: B2-7 (antibody, V domains shown)
VH: EVQLVESGGGVVQPGRSLRLSCAASGFTISSYGMHWVRQAPGKGLEWVAVISYDGSNKYYADSVKGRFTISRDNSKNTLYLQMNSLRVEDTAVYYCAKDLLLRYFDWSPKYYYNGMDVWGQGTMVTVSS
VL: QSVLTQPPSVSVAPGKTARITCGGNNIGSKSVHWYQQKPGQAPVLVVYDDSDRPSGIPERFSGSNSGNTATLTISRVEAGDEADYYCQVWDSSSDHPGVFGTGTKVTVL
notes: also called B2-7_HC; B2-7_LC
Blocking potency (IC50) of GFP expression in LILRB2 reporter cells induced by coated ANGPTL2 [1]: 0.221 µg/mL | MFI (LILRB3): 11 | binding result (LILRB3): no binding | MFI (LILRB5): 11 | binding result (LILRB5): no binding | MFI (LILRA6): 11 | binding result (LILRA6): no binding | MFI [2]: 1160 | MFI (LAIR1 on reporter cells): 23 | binding result (LAIR1 on reporter cells): no binding | EC50 [3]: 0.212 µg/mL

B2: B2-16 (antibody, V domains shown)
VH: QVQLVQSGAEVKKPGSSVKVSCKASGGTFSSYAISWVRQAPGQGLEWMGGIIPIFGTANYAQKFQGRVTITADESTSTAYMELSSLRSEDTAVYYCASGIIPDNPYGMDVWGQGTMVSVSS
VL: DIVMTQSPLSLPVTLGQPASISCTSSQSLVYSDGNTYLNWFHQRPGQSPRRLFYKVSNRASGVPDRFSGSGSGTDFTLKISRVEAEDLGVYYCMQGTHWPVTFGQGTRLEIK
notes: also called B2-16_HC; B2-16_LC
Blocking potency (IC50) of GFP expression in LILRB2 reporter cells induced by coated ANGPTL2 [1]: 0.131 µg/mL | MFI (LILRB3): 10 | binding result (LILRB3): no binding | MFI (LILRB5): 11 | binding result (LILRB5): no binding | MFI (LILRA6): 12 | binding result (LILRA6): no binding | MFI [2]: 940 | MFI (LAIR1 on reporter cells): 24 | binding result (LAIR1 on reporter cells): no binding | EC50 [3]: 0.277 µg/mL

B3: B2-15 (antibody, V domains shown)
VH: EVQLVQSGAEVKKSGASVKVSCKSSGYTFTNYGISWVRQAPGQGLEWMGWISGDAGDTKFAQKFQGRVTMTTDTSTTTTYMELRSLRSDDTAVYYCARDGEYIPMFRGFDNYYGLDVWGQGTLVSVSS
VL: QSVLTQPPSASATPGQRVTISCSGRNANIGSNPVNWYQQLPGTAPRLVMYSNNQRPSGVPDRFSGSKSGTSASLAISGLQSEDEADYYCEGWDDSLNGYVFGTGTKVTVL
notes: also called B-15; B2-15_HC
Blocking potency (IC50) of GFP expression in LILRB2 reporter cells induced by coated ANGPTL2 [1]: 0.341 µg/mL | MFI (LILRB3): 9 | binding result (LILRB3): no binding | MFI (LILRB5): 11 | binding result (LILRB5): no binding | MFI (LILRA6): 10 | binding result (LILRA6): no binding | MFI [2]: 910 | MFI (LAIR1 on reporter cells): 22 | binding result (LAIR1 on reporter cells): no binding | EC50 [3]: 0.101 µg/mL

B4: B2-17 (antibody, V domains shown)
VH: EVQLLDSGPRLLKPSETLSLTCGVSGVSTSSTHWWSWVRQTPGKGLEWIGEILHNGNTNSNPSLKSRVSMSIDKSRNQFSLQLKSMTAADTAVYYCASASPNWGASGAFDAWAQGTMVTVSS
VL: QSVLTQPPSASATPGQRVTISCSGSSSNIGSNPVNWYQQVPGMAPELVMYSDNQRPSGVPDRFSGSNSGTSASLAISGLQSEDEADYYCSTWDDSLNGLVFGTGTKVTVL
notes: also called B2-17_HC; B2-17_LC
Blocking potency (IC50) of GFP expression in LILRB2 reporter cells induced by coated ANGPTL2 [1]: 0.405 µg/mL | MFI (LILRB3): 10 | binding result (LILRB3): no binding | MFI (LILRB5): 10 | binding result (LILRB5): no binding | MFI (LILRA6): 11 | binding result (LILRA6): no binding | MFI [2]: 1100 | MFI (LAIR1 on reporter cells): 23 | binding result (LAIR1 on reporter cells): no binding | EC50 [3]: 0.105 µg/mL

B5: B2-19 (antibody, V domains shown)
VH: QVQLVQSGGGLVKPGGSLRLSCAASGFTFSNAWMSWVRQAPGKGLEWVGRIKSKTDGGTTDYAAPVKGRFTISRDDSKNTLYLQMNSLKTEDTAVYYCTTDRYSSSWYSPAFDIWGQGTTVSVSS
VL: QPVLTQPPSVSEAPRQRVTISCSGSSSNIGNNVVNWYQQLPGKAPKLLIYYDDLLPSGVSDRFSGSKSGTSASLAISGLQSEDEADYYCATWDDSLNGPVFGGGTKLTVL
notes: also called B2-19_HC; B2-19_LC
Blocking potency (IC50) of GFP expression in LILRB2 reporter cells induced by coated ANGPTL2 [1]: 0.0485 µg/mL | MFI (LILRB3): 9 | binding result (LILRB3): no binding | MFI (LILRB5): 11 | binding result (LILRB5): no binding | MFI (LILRA6): 11 | binding result (LILRA6): no binding | MFI [2]: 1280 | MFI (LAIR1 on reporter cells): 22 | binding result (LAIR1 on reporter cells): no binding | EC50 [3]: 0.208 µg/mL
